Assay results reported in the supplement of paper PMC7877785.
± gives the uncertainty stated by the source.

Assay: self-splicing fitness, log relative to wild type (ln ratio); higher = more splicing; Tetrahymena group I intron in knt gene, E. coli kanamycin selection, DiMSum; sequences stand for … in CUCUCU…GGAGGGAAAAGUUAUCAGGCAUGCACCUGGUAGCUAGUCUUUAAACCAAUAGAUUGCAUCGGUUUAAAAGGCAAGACCGUCAAAUUGCGGGAAAGGGGUCAACAGCCGUUCAGUACCAAGUCUCAGGGGAAACUUUGAGAUGGCCUUGCAAAGGGUAUGGUAAUAAGCUGACGGACAUGGUCCUAACCACGCAGCCAAGUCCUAAGUCAACAGAUCUUCUGUUGAUAUGGAUGCAGUUCACAGACUAAAUGUCGGUCGGGGAAGAUGUAUUCUUCUCAUAAGAUAUAGUCGGACCUCUCCUUAAUGGGAGCUAGCGGAUGAAGUGAUGCAACACUGGAGCCGCUGGGAACUAAUUUGUAUGCGAAAGUAUAUUGAUUAGUUUUGGAGUACUCGUGGUCG
In short: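 Pooled colonies went to amplicon sequencing on an Illumina HiSeq 2500 after six replicate transformations. The plates were LB agar with 100 μg/mL carbenicillin, 50 μM IPTG and 0.2% rhamnose, with or without 25 μg/mL kanamycin, incubated overnight at 37°C or 30°C. The E. coli BL21(DE3) library had all eight P1ex-region intron nucleotides randomised, the intron placed in the knt kanamycin-resistance gene on pET-22b(+). DiMSum fitness is the error-weighted combination of replicate fold changes, kanamycin against none, normalised to wild type.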

Row | Sequence | self-splicing fitness (ln) (30 °C) | self-splicing fitness (ln) (37 °C)
1 | UAGCAGCAAUAUUACGGGCU | -3.39 ± 0.15 | -1.08 ± 0.12
2 | UAGCAGCAAUAUUACGUCAU | -3.68 ± 0.17 | -1.52 ± 0.13
3 | UAGCAGCAAUAUUACGUGAA | -1.71 ± 0.16 | -0.671 ± 0.18
4 | UAGCAGCAAUAUUACGUGAU | -3.42 ± 0.13 | -1.09 ± 0.11
5 | UAGCAGCAAUAUUACGUGUA | -1.17 ± 0.062 | -0.62 ± 0.077
6 | UAGCAGCAAUAUUACGUGUG | -1.63 ± 0.064 | -0.7 ± 0.08
7 | UAGCAGCAAUAUUACGUGUU | -3.4 ± 0.1 | -2.86 ± 0.15
8 | UAGCAGCAAUAUUACGUUCG | -0.326 ± 0.069 | 0.165 ± 0.091
9 | UAGGAGCAAUAUUACGACUA | -0.46 ± 0.13 | -1.53 ± 0.15
10 | UAGGAGCAAUAUUACGAGUC | -3.68 ± 0.33 | -2.78 ± 0.3
11 | UAGGAGCAAUAUUACGAUCU | -3.09 ± 0.4 | –
12 | UAGGAGCAAUAUUACGAUGC | -1.78 ± 0.23 | -1.01 ± 0.17
13 | UAGGAGCAAUAUUACGAUGU | – | -1.79 ± 0.4
14 | UAGGAGCAAUAUUACGCCCG | -1.53 ± 0.19 | -0.352 ± 0.17
15 | UAGGAGCAAUAUUACGGAAG | -2.94 ± 0.18 | -1.51 ± 0.26
16 | UAGGAGCAAUAUUACGGAUA | -2.09 ± 0.29 | -1.46 ± 0.23
17 | UAGGAGCAAUAUUACGGAUC | -3.44 ± 0.41 | -0.998 ± 0.39
18 | UAGGAGCAAUAUUACGGCAC | -2.4 ± 0.15 | -2.53 ± 0.26
19 | UAGGAGCAAUAUUACGGCCA | -2.27 ± 0.21 | -1.7 ± 0.27
20 | UAGGAGCAAUAUUACGGCUA | -0.122 ± 0.11 | 0.147 ± 0.11
21 | UAGGAGCAAUAUUACGGUAA | -3.41 ± 0.34 | -2.26 ± 0.31
22 | UAGGAGCAAUAUUACGUAAU | -3.15 ± 0.34 | –
23 | UAGGAGCAAUAUUACGUACU | -2.72 ± 0.31 | -1.73 ± 0.32
24 | UAGGAGCAAUAUUACGUAUA | -2.34 ± 0.21 | -0.936 ± 0.17
25 | UAGGAGCAAUAUUACGUCAC | -3.99 ± 0.16 | -3.35 ± 0.21

Row | Sequence | self-splicing fitness (ln) (30 °C) | self-splicing fitness (ln) (37 °C)
26 | UAGGAGCAAUAUUACGUCAG | -4.59 ± 0.42 | -1.7 ± 0.26
27 | UAGGAGCAAUAUUACGUCCU | -1.63 ± 0.18 | -2.25 ± 0.26
28 | UAGGAGCAAUAUUACGUCUA | -0.313 ± 0.11 | 0.198 ± 0.13
29 | UAGGAGCAAUAUUACGUCUU | -3.16 ± 0.34 | -0.955 ± 0.23
30 | UAGGAGCAAUAUUACGUUUC | -2.55 ± 0.29 | -2.68 ± 0.44
31 | UAGGAGCAAUAUUACGUUUU | -1.88 ± 0.23 | -1.89 ± 0.27
32 | UAGUAGCAAUAUUACGAACC | – | -2.97 ± 0.33
33 | UAGUAGCAAUAUUACGAAGC | – | -1.73 ± 0.45
34 | UAGUAGCAAUAUUACGACUC | -0.329 ± 0.16 | 0.405 ± 0.19
35 | UAGUAGCAAUAUUACGACUU | 0.654 ± 0.13 | -0.285 ± 0.14
36 | UAGUAGCAAUAUUACGAGGG | -3.04 ± 0.42 | -2.03 ± 0.36
37 | UAGUAGCAAUAUUACGCAGG | -2.8 ± 0.22 | -1.74 ± 0.23
38 | UAGUAGCAAUAUUACGCCUA | -0.556 ± 0.14 | -0.575 ± 0.14
39 | UAGUAGCAAUAUUACGCGUA | -1.53 ± 0.25 | -1.94 ± 0.17
40 | UAGUAGCAAUAUUACGCUAC | -2.41 ± 0.42 | –
41 | UAGUAGCAAUAUUACGCUCU | -1.71 ± 0.16 | -0.589 ± 0.17
42 | UAGUAGCAAUAUUACGGCCG | 0.0089 ± 0.17 | -0.367 ± 0.23
43 | UAGUAGCAAUAUUACGGCUG | -0.344 ± 0.061 | -0.0985 ± 0.096
44 | UAGUAGCAAUAUUACGUCCU | -2.53 ± 0.21 | -0.272 ± 0.15
45 | UAGUAGCAAUAUUACGUGCU | -1.79 ± 0.11 | -0.826 ± 0.12
46 | UAGUAGCAAUAUUACGUGGA | -2.56 ± 0.31 | -1.29 ± 0.2
47 | UAGUAGCAAUAUUACGUUAU | -3.5 ± 0.43 | -3.13 ± 0.4
48 | UAGUAGCAAUAUUACGUUCG | -0.331 ± 0.091 | -0.159 ± 0.11
49 | UAGUAGCAAUAUUACGUUGG | -3.52 ± 0.22 | -2.69 ± 0.16
50 | UAUAAGCAAUAUUACGAAAG | -1.17 ± 0.13 | -2.44 ± 0.21

Row | Sequence | self-splicing fitness (ln) (30 °C) | self-splicing fitness (ln) (37 °C)
51 | UAUAAGCAAUAUUACGAAAU | -3.45 ± 0.22 | -3.24 ± 0.33
52 | UAUAAGCAAUAUUACGAACG | -0.609 ± 0.12 | 0.622 ± 0.15
53 | UAUAAGCAAUAUUACGAACU | -1.94 ± 0.28 | 0.235 ± 0.24
54 | UAUAAGCAAUAUUACGAAGG | -2.23 ± 0.21 | -1.19 ± 0.23
55 | UAUAAGCAAUAUUACGAAUC | – | -1.77 ± 0.36
56 | UAUAAGCAAUAUUACGACCA | -0.816 ± 0.092 | 0.038 ± 0.12
57 | UAUAAGCAAUAUUACGAUCU | -1.22 ± 0.11 | 0.0539 ± 0.12
58 | UAUAAGCAAUAUUACGAUGC | -3.29 ± 0.36 | -2.63 ± 0.27
59 | UAUAAGCAAUAUUACGAUUU | -1.43 ± 0.091 | -0.65 ± 0.1
60 | UAUAAGCAAUAUUACGCACC | -1.82 ± 0.3 | -1.42 ± 0.3
61 | UAUAAGCAAUAUUACGCAGG | -2.31 ± 0.13 | -0.616 ± 0.11
62 | UAUAAGCAAUAUUACGCAUU | -2.15 ± 0.21 | -0.414 ± 0.14
63 | UAUAAGCAAUAUUACGCCAU | -1.19 ± 0.23 | -2.11 ± 0.28
64 | UAUAAGCAAUAUUACGCCGA | -1.53 ± 0.14 | 0.235 ± 0.14
65 | UAUAAGCAAUAUUACGCUUG | -1.75 ± 0.15 | -0.76 ± 0.14
66 | UAUAAGCAAUAUUACGGCCU | -0.92 ± 0.16 | -0.641 ± 0.23
67 | UAUAAGCAAUAUUACGGGAG | -2.07 ± 0.11 | -1.64 ± 0.12
68 | UAUAAGCAAUAUUACGGGCA | -0.658 ± 0.11 | 0.213 ± 0.12
69 | UAUAAGCAAUAUUACGGGGU | -2.93 ± 0.24 | -2.66 ± 0.23
70 | UAUAAGCAAUAUUACGGGUG | -0.65 ± 0.074 | 0.0941 ± 0.12
71 | UAUAAGCAAUAUUACGUAGC | – | -2.05 ± 0.36
72 | UAUAAGCAAUAUUACGUAGG | -3 ± 0.27 | -0.609 ± 0.27
73 | UAUAAGCAAUAUUACGUAGU | -3.65 ± 0.25 | -2.07 ± 0.25
74 | UAUAAGCAAUAUUACGUAUC | -1.88 ± 0.17 | -2.03 ± 0.19
75 | UAUAAGCAAUAUUACGUUAC | -3.45 ± 0.21 | -2.46 ± 0.23

Row | Sequence | self-splicing fitness (ln) (30 °C) | self-splicing fitness (ln) (37 °C)
76 | UAUAAGCAAUAUUACGUUCG | -0.846 ± 0.12 | 0.0904 ± 0.17
77 | UAUAAGCAAUAUUACGUUUG | -1.84 ± 0.11 | -1.61 ± 0.14
78 | UAUCAGCAAUAUUACGAACA | -0.0668 ± 0.089 | -0.206 ± 0.096
79 | UAUCAGCAAUAUUACGACAC | -2.03 ± 0.2 | 0.634 ± 0.23
80 | UAUCAGCAAUAUUACGACCG | -0.12 ± 0.081 | 0.738 ± 0.11
81 | UAUCAGCAAUAUUACGAGCA | -0.827 ± 0.084 | -0.124 ± 0.11
82 | UAUCAGCAAUAUUACGAUCA | -0.115 ± 0.11 | 0.19 ± 0.14
83 | UAUCAGCAAUAUUACGAUCC | -1.32 ± 0.11 | 0.203 ± 0.13
84 | UAUCAGCAAUAUUACGAUGA | -0.667 ± 0.075 | 0.19 ± 0.099
85 | UAUCAGCAAUAUUACGAUGC | -3.83 ± 0.37 | -1.82 ± 0.22
86 | UAUCAGCAAUAUUACGAUUC | -0.925 ± 0.081 | -0.0952 ± 0.092
87 | UAUCAGCAAUAUUACGCACA | -0.305 ± 0.087 | 0.32 ± 0.14
88 | UAUCAGCAAUAUUACGCAUC | -1.87 ± 0.085 | -0.409 ± 0.12
89 | UAUCAGCAAUAUUACGCCGC | -1.58 ± 0.19 | -2.02 ± 0.27
90 | UAUCAGCAAUAUUACGGACA | 0.27 ± 0.15 | -0.681 ± 0.17
91 | UAUCAGCAAUAUUACGGCGA | -0.382 ± 0.1 | 1.02 ± 0.13
92 | UAUCAGCAAUAUUACGGCUG | -3.56 ± 0.2 | -1.78 ± 0.15
93 | UAUCAGCAAUAUUACGGGAG | -1.83 ± 0.087 | -1.17 ± 0.098
94 | UAUCAGCAAUAUUACGGGUC | -2.27 ± 0.12 | -1.3 ± 0.12
95 | UAUCAGCAAUAUUACGGGUG | -0.736 ± 0.044 | -0.102 ± 0.064
96 | UAUCAGCAAUAUUACGGUCC | -2.18 ± 0.13 | -0.955 ± 0.19
97 | UAUCAGCAAUAUUACGGUGC | -3.27 ± 0.19 | -1.14 ± 0.14
